This passage reports Kd results from PMC6412877, “Novel Site-Specific Fatty Chain-Modified GLP-1 Receptor Agonist with Potent Antidiabetic Effects” (Molecules, 2019).

The target of the test is Glucagon-like peptide-1 receptor extracellular domain. The test can be described thus: SPR; Biacore 8K, according to the user's manual; who was immobilised and the conditions are not stated. A general note: SPR reads the build-up and loss of mass on a sensor chip optically.
The molecule FTSEGTSSYLET [PEP04] came in with an equilibrium dissociation constant (Kd) of 3990 nM.

Take KEYSSPAATQRFGGPSSGAPPPS [PEP08]: the dissociation constant (Kd) was determined as 151 nM.

FFYSSPSAYLET [PEP01] displayed a dissociation constant Kd of 740 nM. This Kd lies about 4.9-fold higher than the previous one.

With EFIATAWLVKQTGGPSSGAPPPS [PEP12], the dissociation constant (Kd) came to 1090 nM.

As for FTSEGTSSYLETGGPSSGAPPPS [PEP10], the Kd was 3000 nM.

On to EFIATAWLVKQT [PEP06], for which the Kd stood at 2590 nM.

Regarding FFYSSPSAYLETGGPSSGAPPPS [PEP07], the Kd was found to be 24 nM.

With YSHAYLEETQRFGGPSSGAPPPS [PEP11], the Kd was 1250 nM.

In turn, KQYSSPTAWLVG [PEP03] had a dissociation constant Kd of 1750 nM.

YSHAYLEETQRF [PEP05] came in with a Kd of 2210 nM.

On to KEYSSPAATQRF [PEP02], for which the Kd was found to be 1050 nM.

In general, Kd refers to the equilibrium constant for the complex coming apart. Low values mean higher affinity, high ones lower affinity.
